According to PMC2839002:

Molecular target: YFP-SmB′ (UniProt P14678)
Assay: co-IP

fold coilin recovered with anti-GFP relative to NMS: 4.5 fold
Substance: coilin, endogenous in HeLa (from UniProt P38432 1-576) (natural protein)
